# B1: BCMA-AB1-8 (conjugate)
# VH: EVQLVESGGGLVKPGGSLRLSCAASGFTSSTAWMSWVRQAPGKGLEWVGRIKSKSDGGTTDYAAPVKGRFTISRDDSKNTLFLQMNSLKTEDTAVYYCAKGGGTYGYWGQGTTVTVSS
# VL: QSVLTQPASVSGSPGQSVTISCTGTSSAHGGHYYVSWYQQHPGKAPKLMIYDVSNRPSGVSNRFSGSKSGNTASLTISGLQAEDEADYYCGSYTSSGSYVFGTGTKLTVL
# B2: BCMA-AB1-1: Compound 1 conjugated with anti-BCMA antibody clone BCA7-2C5 (AB1); DAR 3.8 (conjugate)
# VH: EVQLVESGGGLVKPGGSLRLSCAASGFTSSTAWMSWVRQAPGKGLEWVGRIKSKSDGGTTDYAAPVKGRFTISRDDSKNTLFLQMNSLKTEDTAVYYCAKGGGTYGYWGQGTTVTVSS
# VL: QSVLTQPASVSGSPGQSVTISCTGTSSAHGGHYYVSWYQQHPGKAPKLMIYDVSNRPSGVSNRFSGSKSGNTASLTISGLQAEDEADYYCGSYTSSGSYVFGTGTKLTVL
# B3: BCMA-AB1-2: Compound 2 conjugated with anti-BCMA antibody clone BCA7-2C5 (AB1); DAR 3.4 (conjugate)
# VH: EVQLVESGGGLVKPGGSLRLSCAASGFTSSTAWMSWVRQAPGKGLEWVGRIKSKSDGGTTDYAAPVKGRFTISRDDSKNTLFLQMNSLKTEDTAVYYCAKGGGTYGYWGQGTTVTVSS
# VL: QSVLTQPASVSGSPGQSVTISCTGTSSAHGGHYYVSWYQQHPGKAPKLMIYDVSNRPSGVSNRFSGSKSGNTASLTISGLQAEDEADYYCGSYTSSGSYVFGTGTKLTVL
# B4: BCMA-AB1-3: Compound 3 conjugated with anti-BCMA antibody clone BCA7-2C5 (AB1) (conjugate)
# VH: EVQLVESGGGLVKPGGSLRLSCAASGFTSSTAWMSWVRQAPGKGLEWVGRIKSKSDGGTTDYAAPVKGRFTISRDDSKNTLFLQMNSLKTEDTAVYYCAKGGGTYGYWGQGTTVTVSS
# VL: QSVLTQPASVSGSPGQSVTISCTGTSSAHGGHYYVSWYQQHPGKAPKLMIYDVSNRPSGVSNRFSGSKSGNTASLTISGLQAEDEADYYCGSYTSSGSYVFGTGTKLTVL
# Tests used:
# BCMA-negative K562 = assay: In vitro cytotoxicity assay (CellTiter-Glo 2.0, 384-well), Example B2; type: cell-based, human
# Protocol: (§1) The in vitro efficacies of ADCs anti-BCMA-Compound 50, anti-BCMA-Compound 51, anti-BCMA-Compound 52, and anti-BCMA-Compound 53, were compared to anti-BCMA-Compound 3. Anti-BCMA-AB1 clone was conjugated with compounds 50, 51, 52, 53 or 3 and the ADCs were evaluated using the following human cancer cell lines: BCMA-negative K562 and BCMA-positive NCI-H929, purchased from the American Type Culture Collection (ATCC; Manassas, VA).
# (§2) Cell Culture Method: The cell lines were cultured in RPMI-1640 medium (Catalog #10-041-CV: Corning) supplemented with 10-20% fetal bovine serum (FBS; Catalog #MT35011CV; Corning) and 1× penicillin-streptomycin (Catalog #30-002-Cl, Corning) and maintained at 37° C. in a 5% C02 humidified environment. Viable cell counts were made by Trypan blue exclusion using a Countess or Countess II automated cell counter.
# (§3) The in vitro assays were performed as follows: All cells were harvested by removal of a portion of the cell culture suspension followed by centrifugation at 300 g for 5 minutes, followed by resuspension in cell culture medium (described above in Cell Culture method), viable cell count (as described above in Cell Culture method), and then seeded into 384-well white wall clear bottom plates (Catalog #3765, Corning) at a density of 2,500 cells/well in growth media. Plates were maintained at 37° C. The outer wells of plates contained medium only and were used for background subtraction for the cell viability assay. Working solutions of test articles were prepared at 2× final concentrations with 5-fold serial dilutions in complete growth medium. Cell treatment was performed in either technical triplicates or duplicates and maintained at 37° C. for 120-hour assay. After treatment, cell viability was determined by CellTiter-Glo 2.0 assay (Catalog #G9243; Promega; Madison, WI, USA) based on the manufacturer's instructions. CellTiter Glo reagent reacts with ATP in metabolically active cells to give a luminescent readout that is directly proportional to the number of viable cells. Briefly, plates were removed from the incubator and equilibrated to room temperature before addition of CellTiter Glo reagent. Luminescence was measured using a Tecan Spark microplate reader (Tecan; Mannedorf, Switzerland).
# (§4) Data Analysis: For Cytotoxicity assays, raw luminescence data was background subtracted with average luminescence from the outer wells containing medium only and normalized to untreated controls using Excel (Microsoft; Albuquerque, NM). Dose-response relationships and EC50 values were determined based on non-linear regression analysis of normalized data fit to a four-parameter logistic equation using GraphPad Prism 8.0.
# BCMA-positive NCI-H929 = assay: as above; type: cell-based, human
# Protocol: as §1, §2, §3, §4
# [1] = test system: NCI-H929 (BCMA+) cells and K562 (BCMA −) cells; assay: In vitro cytotoxicity assay, Example B2, statements across all cell lines; type: cell-based, human; conditions: regardless of BCMA expression level; read-out: average EC50, inhibition of cell proliferation across all cell lines
# Protocol: as §1, with “VA). […]” for “VA).”
# The in vitro assays were performed as follows: All cells were harvested by removal of a portion of the cell culture suspension followed by centrifugation at 300 g for 5 minutes, followed by resuspension in cell culture medium (described above in Cell Culture method), viable cell count (as described above in Cell Culture method), and then seeded into 384-well white wall clear bottom plates (Catalog #3765, Corning) at a density of 2,500 cells/well in growth media. […] After treatment, cell viability was determined by CellTiter-Glo 2.0 assay (Catalog #G9243; Promega; Madison, WI, USA) based on the manufacturer's instructions. CellTiter Glo reagent reacts with ATP in metabolically active cells to give a luminescent readout that is directly proportional to the number of viable cells. […] Luminescence was measured using a Tecan Spark microplate reader (Tecan; Mannedorf, Switzerland). […]
# NCI-H929 (BCMA+) cells = assay: In vitro cell viability assay (Cell Titer-Glo 2.0), Example B1; type: cell-based, human; conditions: 4-day assays, FIG. 2A
# Protocol: (§5) The in vitro efficacies of ADCs anti-BCMA-Compound 1, anti-BCMA-Compound 2, anti-BCMA-Compound 3, anti-BCMA-Compound 4, anti-BCMA-Compound 5, anti-BCMA-Compound 6, anti-BCMA-Compound 7, and anti-BCMA-Compound 8, were evaluated using the following human cancer cell lines: K562, MM.1R and NCI-H929, purchased from the American Type Culture Collection (ATCC; Manassas, VA). The cells were cultured in RPMI-1640 medium (Gibco ThermoFisher; Waltham, MA) supplemented with 10% heat-inactivated fetal bovine serum (FBS: Corning; Corning, NY, USA) and 1× penicillin-streptomycin (Corning) and maintained at 37° C. in a 5% CO2 humidified environment.
# (§6) The in vitro assays were performed as follows: Tumor cells were harvested by centrifugation at 300 g for 5 minutes and plated into 96-well clear bottom white-walled plates (5,000 to 10,000 cells/well in 50 μL complete medium) and maintained at 37° C. Cells were then treated in duplicate with 50 μL of test articles prepared at 2× final concentration that were serially diluted in complete medium and incubated at 37° C. for up to 120 hrs. After treatment, inhibition of cancer cell growth was determined using the Cell Titer-Glo® 2.0 Cell Viability Assay (Promega; Madison, WI, USA) as described by the manufacturers' protocol. Luminescence was measured using a Perkin-Elmer Envision 2104 Microplate Reader (Waltham, MA).
# (§7) Data were normalized to non-treated controls using Microsoft Excel (Redmond, WA, USA) and analyzed using GraphPad Prism software (version 8; La Jolla, CA, USA). Half-maximal effective concentrations (EC50) were derived from dose response curves were generated using non-linear regression analysis fit to a 4-parameter logistic equation.
# K562 (BCMA −) cells = assay: as above; type: cell-based, human; conditions: Table 4; 5-day assays; AB1 clone; read-out: EC50 Values, Cell Line K562
# Protocol: as §5, §6, §7
# K562, MM.1R and NCI-H929 = assay: In vitro cell viability assay, Example B1, statements over several cell lines; type: cell-based, human; conditions: AB1 clone versus AB2 clone ADCs
# Protocol: as §5
# as §6, with “Cells were then treated in duplicate with 50 μL of test articles prepared at 2× final concentration that were serially diluted in complete medium and incubated at 37° C. for up to 120 hrs.” left out
# Data were normalized to non-treated controls using Microsoft Excel (Redmond, WA, USA) and analyzed using GraphPad Prism software (version 8; La Jolla, CA, USA). […]
# NCI-H929 tumor xenograft = assay: In vivo efficacy, NCI-H929 tumor xenograft in SCID beige mice; set-up: species or system CB17 SCID beige mice; conditions: for tumor growth: i.p.
# Protocol: (§8) Female CB17 SCID beige mice, 6 weeks of age, were purchased from Charles River Laboratories.
# (§9) Human multiple myeloma tumor cell lines NCI-H929 and OPM2 were cultured and expanded in RPMI 1640 medium supplemented with 10% FBS, 100 units/ml of penicillin and 100 μg/ml of streptomycin at 37° C. in a 5% CO2 humidified environment for a period of 2-3 weeks before harvesting for implantation. Cell viability determined by Trypan blue dye exclusion assay was >90% before implantation. 5 million of OPM2 or NCI-H929 cells in 100 μl of PBS—Matrigel 1:1 (v/v) mixture were inoculated to the right upper flank of each mouse by s.c. injection.
# (§10) Tumor volume measurement was started at day 14 after tumor cell inoculation and performed twice weekly. The longest longitudinal diameter as length and the widest transverse diameter as width were measured by using a digital caliper. Tumor volume (TV) were then calculated by the formula: TV=[length×(width)^2]/2 and were analyzed in Excel.
# (§11) The treatment was started when average tumor size reaches ˜400, 200 and 150 mm^3 for NCI-H929 tumor xenografts in Experiment I, III and IV, respectively, or ˜240 mm^3 for OPM2 tumor xenograft in Experiment I.
# Mice were euthanized when tumor size reached 2000 mm^3.
# After tumor-bearing mice were randomized, anti-BCMA antibody (BCMA-AB1 or BCMA-AB2), anti-BCMA antibody conjugate with Compound 3 (BCMA-AB1-3 or BCMA-AB2-3) or iso-type antibody conjugate with Compound 3 (iso-3) diluted in PBS were administered to mice through i.p. injections. Treatment regimens included 8 mg/kg once, 4 mg/kg Q1W×2 and 2 mg/kg biw×4 of anti-BCMA-AB1 or anti-BCMA-AB1-Compound 3 in Experiment I (FIG. 3); 2 mg/kg biw×4 and 0.67 mg/kg biw×4 of anti-BCMA-AB1 or anti-BCMA-AB1-Compound 3 in Experiment II (FIG. 4); 1, 2, 4, and 8 mg/kg once of anti-BCMA-AB1-Compound 3 or iso-3 in Experiment III (FIG. 5); and 4 mg/kg biw×4 of anti-BCMA-AB2 or 2 and 4 mg/kg biw×4 of anti-BCMA-AB2-Compound 3 in Experiment IV (FIG. 6).
# Raw data of tumor measurements were analyzed in Excel. Tumor growth curves were plotted using GraphPad Prism 8.0 software and values were presented as mean t SEM.
# OPM2 tumor xenograft = assay: In vivo efficacy, OPM2 tumor xenograft in SCID beige mice; set-up: species or system CB17 SCID beige mice; conditions: Experiment II, FIG. 4
# Protocol: as §8, §9, §10, §11
# Mice were euthanized when tumor size reached 2000 mm^3. […]
# Raw data of tumor measurements were analyzed in Excel. […]
# [2] = Table 7, 120-hour (5-day) assay, AB1 clone
molecule,measurement,setting,value
"CC[C@H](C)[C@@H]([C@@H](CC(=O)N1CCC[C@H]1[C@H](OC)[C@@H](C)C(=O)N[C@H](CN=[N+]=[N-])Cc1ccc(NC(C)C)cc1)OC)N(C)C(=O)[C@@H](NC(=O)[C@H](C(C)C)N(C)C)C(C)C [D3, reference compound]",EC50,BCMA-negative K562; [2],1.52 nM
same,EC50,BCMA-positive NCI-H929; [2],1.08 nM
same,EC50,[1],0.88 to 1.53 nM
B1,cell killing of NCI-H929,NCI-H929 (BCMA+) cells,"comparable activity to the Gly2 peptide linker ADC, anti-BCMA-AB1-7"
B2,EC50,K562 (BCMA −) cells,> 100 nM
B3,EC50,K562 (BCMA −) cells,> 100 nM
B4,"relative potency, comparison of Table 5 and Table 6","K562, MM.1R and NCI-H929",most potent
same,tumor regression / elimination,"NCI-H929 tumor xenograft; Experiment I, FIG. 3, all regimens",induced dramatic and prolonged tumor regressions and eliminated all tumors in about two weeks after initial treatments
same,tumor growth,"NCI-H929 tumor xenograft; Experiment I, FIG. 3, 8 mg/kg once, 4 mg/kg Q1W×2, 2 mg/kg biw×4, start ~400 mm^3",significantly inhibited tumor growth
same,tumor regression / elimination,"NCI-H929 tumor xenograft; Experiment III, FIG. 5, high doses",induced dramatic and prolonged tumor regressions and eliminated all tumors in about two weeks after initial treatments
same,tumor growth,"NCI-H929 tumor xenograft; Experiment III, FIG. 5, 1, 2, 4, and 8 mg/kg once",significantly inhibited tumor growth in a dose-dependent manner
same,activity against K562 cells,"BCMA-negative K562; 5-day assays, FIG. 8",did not show activity
same,effect on NCI-H929 cell viability,"BCMA-positive NCI-H929; 5-day assays, FIG. 8",dose-dependently reduced
same,tumor regression / elimination,OPM2 tumor xenograft; high-dose regimen,induced dramatic and prolonged tumor regressions and eliminated all tumors in about two weeks after initial treatments
same,tumor growth,"OPM2 tumor xenograft; i.p., 2 mg/kg biw×4 and 0.67 mg/kg biw×4",significantly and dose-dependently inhibited tumor growth
same,EC50,K562 (BCMA −) cells,> 100 nM
